From paper PMC4716841, “Attenuation of AMPK signaling by ROQUIN promotes T follicular helper cell formation” (eLife, 2015)

Target: T1, AMPKα1, endogenous (mouse), catalytic α1 subunit of adenosine monophosphate-activated protein kinase (mouse (endogenous in primary C57BL/6 …, UniProt Q5EG47 1-559))
T1 construct: AMPK catalytic α1 subunit, encoded by Prkaa1, endogenous in mouse cells; In the cells it may stand with AMPK β and γ subunits; also called α1 subunit of AMPK; encoded by Prkaa1; source: endogenous, primary C57BL/6 MEFs (in situ); endogenous, EL4 cell lysate
Assay: proximity ligation; in situ PLA on primary C57BL/6 MEFs, endogenous proteins; goat anti-AMPKα1 (C20) with rabbit anti-ROQUIN, overnight at 4°C; resting cells or 1 mM arsenite for 1 hr; control PLA GFP:AMPKα1
Details: partners not purified

T1 sequence (Q5EG47 whole entry): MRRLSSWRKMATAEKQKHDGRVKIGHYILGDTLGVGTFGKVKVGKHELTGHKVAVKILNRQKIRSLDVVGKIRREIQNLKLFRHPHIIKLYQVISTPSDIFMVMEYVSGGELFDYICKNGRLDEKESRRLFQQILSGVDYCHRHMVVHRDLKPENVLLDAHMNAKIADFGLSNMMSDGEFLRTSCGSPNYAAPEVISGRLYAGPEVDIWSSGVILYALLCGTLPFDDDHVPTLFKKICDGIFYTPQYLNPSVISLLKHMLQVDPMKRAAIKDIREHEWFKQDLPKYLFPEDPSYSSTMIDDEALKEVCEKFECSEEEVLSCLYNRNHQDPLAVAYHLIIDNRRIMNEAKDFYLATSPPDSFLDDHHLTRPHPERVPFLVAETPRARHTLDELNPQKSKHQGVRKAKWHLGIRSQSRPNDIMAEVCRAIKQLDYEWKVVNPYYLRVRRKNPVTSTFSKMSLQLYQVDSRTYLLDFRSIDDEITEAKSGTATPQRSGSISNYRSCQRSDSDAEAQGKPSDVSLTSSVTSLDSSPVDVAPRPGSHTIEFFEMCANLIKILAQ

fold PLA frequency over the ROQUIN:AGO2 PLA of earlier work: ≥ 15 fold
B1: ROQUIN, endogenous (mouse) (natural protein, UniProt Q4VGL6 1-1130, looked up)
chain: MPVQAPQWTDFLSCPICTQTFDETIRKPISLGCGHTVCKMCLNKLHRKACPFDQTTINTDIELLPVNSALLQLVGAQIPEQQPITLCSGVEDTKHYEEAKKCVEELALYLKPLSSARGVGLNSTTQSVLSRPMQRKLVTLVHCQLVEEEGRIRAMRAARSLGERTVTELILQHQNPQQLSSNLWAAVRARGCQFLGPAMQEEALKLVLLALEDGSALSRKVLVLFVVQRLEPRFPQASKTSIGHVVQLLYRASCFKVTKRDEDSSLMQLKEEFRTYEALRREHDSQIVQIAMEAGLRIAPDQWSSLLYGDQSHKSHMQSIIDKLQTPASFAQSVQELTIALQRTGDPANLNRLRPHLELLANIDPSPDAPPPTWEQLENGLVAVRTVVHGLVDYIQNHSKKGADQQQPPQHSKYKTYMCRDMKQRGGCPRGASCTFAHSQEELEKFRKMNKRLVPRRPLSASLGQLNEVGLPSAPILSDESAVDLSNRKPPALPNGIASSGSTVTQLIPRGTDPSFDSSLKPVKLDHLSSSAPGSPPDLLESAPKSISALPVNPHPVPPRGPTDLPPMPVTKPIQMVPRGSQLYPAQQADVYYQDPRGSAPAFETAPYQQGMYYTPPPCVSRFVRPPPSAPEPGPPYLDHYSPYLQDRVINSQYGTQPQQYPPMYPAHYDGRRVYPAQSYTREEMFRESPIPIDIPSAAVPSYVPESRERYQQVEGYYPVAPHPAQIRPSYPRDPPYSRLPPPQPHPSLDELHRRRKEIMAQLEERKVISPPPFAPSPTLPPAFHPEEFLDEDLKVAGKYKANDYSQYSPWSCDTIGSYIGTKDAKPKDVVAAGSVEMMNVESKGTREQRLDLQRRAVETSDDDLIPFGDRPTVSRFGAISRTSKTLYQGAGPLQAIAPQGAPTKSINISDYSAYGAHGGWGDSPYSPHANIPPQGHFIEREKMSMAEVASHGKPLLSAEREQLRLELQQLNHQISQQTQLRGLEAVSNRLVLQREVNTLASQPQPPQLPPKWPGMISSEQLSLELHQVEREIGKRTRELSMENQCSVDMKSKLGTSKQAENGQPEPQNKIRTEDLTLTFSDVPNGSALTQENLSLLSNKTSSLNLSEDSEGGGDNNDSQRSGVVSNSAP
notes: ROQUIN (ROQUIN1), encoded by Rc3h1, endogenous in mouse cells; also called ROQUIN1; encoded by Rc3h1; source: endogenous, primary C57BL/6 MEFs (in situ); endogenous, EL4 cell lysate
